Laboratory results published in publication PMC11025326 (Journal of Bacteriology, 2024).

B1: 6xHisN-LapB^ΔTM (LapB^Δ1-22aa) (domain or fragment, S. Typhimurium, UniProt Q7CQG6 23-389, looked up)
chain: SAQQTKQDEANRLSRDYVAGVNFLLSNQQDKAVDLFLDMLKEDTGTVEAHLTLGNLFRSRGEVDRAIRIHQTLMESASLTYEQRLLAVQQLGRDYMAAGLYDRAEDMFNQLTDETEFRVGALQQLLQIYQLTSDWQKAIEVAERLVKLGKDKQRIEIAHFYCELALQQMGNDDMDRAMALLKKGAAADKNSARVSIMMGRVYMARGDYAKAVESLQRVIVQDKELVSETLEMLQTCYQQLGKNAEWAEFLRRAVEENTGAGAELMLADILEAREGSDAAQVYITRQLQRHPTMRVFHKLMDYHLNEAEEGRAKESLMVLRDMVGEQVRSKPRYRCQKCGFTAYTLYWHCPSCRAWSTIKPIRGLDGQ
notes: LPS assembly protein B (LapB/YciM), S. Typhimurium; transmembrane segment (residues 1-22) removed and replaced by an N-terminal polyhistidine tag; By calibrated gel filtration a homotrimer when alone, and two copies in the complex with one LpxC; also called 6xHisNLapB^Δ1-22; LapB cytosolic domain; source: E. coli BL21 (DE3), pACYC-Duet1, IPTG; in soluble lysate for the microscale co-purification; …
B2: LpxC^Δ293-305-S-Tag (enzyme)
chain: MIKQRTLKRIVQATGVGLHTGKKVTLTLRPAPANTGVIYRRTDLNPPVDFPADAKSVRDTMLCTCLVNEHDVRISTVEHLNAALAGLGIDNIVIEVNAPEIPIMDGSAAPFVYLLLDAGIDELNCAKKFVRIKETVRVEDGDKWAEFRPYNGFTLDFTIDFNHPAIDSSSQRYAMNFSADAFMRQISRARTFGFMRDIEYLQSRGLCLGGSFDCAIVVDDYRVLNEDGLRFEDEFVRHKMLDAIGDLFMCGHNIIGAFTAYKSGHALNNKLLQAVLAKQEAWEFVTFQDDAE
notes: not shown: S-tag, C-terminal, kept

Tests used:
[1] = target: the molecule itself; assay: SEC; calibrated Superdex 200 Increase 10/300 GL; co-purified LapB^ΔTM-LpxC^Δ293-305 complex, 0.5 mg/mL; 20 mM HEPES, 300 mM NaCl, 10% glycerol, 1 mM DTT, pH 7.0
[2] = target: the molecule itself; assay: SEC; calibrated Superdex 200 Increase 10/300 GL; purified LapB^ΔTM alone, 0.5 mg/mL; 20 mM HEPES, 300 mM NaCl, 10% glycerol, 1 mM DTT, pH 7.0
[3] = target: B1; assay: SEC; details: both partners purified

| Binder | stoichiometry N [1] | stoichiometry N [2] | stoichiometry N [3] [LpxC per LapB chain] |
| --- | --- | --- | --- |
| B1 | 2 | 3 | – |
| B2 | – | – | 0.5 |
